This note sets out measurements from publication PMC7644594.

This test has as its target EPHA2 tagged with a fluorescent protein for FRET (EPHA2-mClover3, EPHA2-mRuby3) (human) (UniProt P29317). Kind of test: FRET or BRET. For orientation: In BRET a luciferase serves as donor, and the signal depends on an acceptor being close.

For the substance “EPHA2 tagged with a fluorescent protein for FRET (EPHA2-mClover3, EPHA2-mRuby3) (from UniProt P29317 24-976) (receptor)”, the N-FRET was 0.347.
